Results: patent publication US20200270588A1, “GLUCOSYL TRANSFERASE POLYPEPTIDES AND METHODS OF USE” (Syngenta Participations AG, priority 2017, published 2020)
Positions count from the first letter of the chain named. Numbers in names are those of the source.

B1: A281L: bx9 SEQ ID NO:1 mutant (protein)
chain: MASSRTGAGAGGRVVVFPFPFQGHFNPVMRLARALHARGLAITVFHSGALDPADYPADYRFVPVTVEADPKLLASEDIAAIVTTLNASCDAPFRARLSALLAAEGRDSVRCVFTDVSWNAVLTASSDLGVPALGMMTASAASLRDYMAYRTLIDKGYLPVKEERKEDPVPELPPYLVKDLLRVDTSDLEEFAELLARTVTAARRASGLIFNTFPLIETDTLAEIHKALSVPVFAVAPLNKLVPTATASLHGVVQADRGCLQWLDTQQPGSVLYVSFGSMALMDPHEFVELAWGLADSKRPFVWVVRPNLIRGFESGALPDGVEDEVRGRGIVVAWAPQEEVLAHPAVGGFLTHNGWNSTVEAISEGVPMVCCPRHGDQFGNMRYVCDVWKVGTELVGEQLERGQVKAAIDRLFGTKEGEEIKERMKEFKIAAAKGIGIGVDVDETASPRTDLTDLVDLIKSF
modifications: Zea mays
B2: E76M: bx9 SEQ ID NO:1 mutant (protein)
chain: B1 chain with E76M, L281A
modifications: Zea mays
B3: M135T: bx9 SEQ ID NO:1 mutant (protein)
chain: B1 chain with M135T, L281A
modifications: Zea mays
B4: I363S: bx9 SEQ ID NO:1 mutant (protein)
chain: B1 chain with L281A, I363S
modifications: Zea mays
B5: A79N: bx9 SEQ ID NO:1 mutant (protein)
chain: B1 chain with A79N, L281A
modifications: Zea mays
B6: V370C: bx9 SEQ ID NO:1 mutant (protein)
chain: B1 chain with L281A, V370C
modifications: Zea mays
B7: V370T: bx9 SEQ ID NO:1 mutant (protein)
chain: B1 chain with L281A, V370T
modifications: Zea mays
B8: I363C: bx9 SEQ ID NO:1 mutant (protein)
chain: B1 chain with L281A, I363C
modifications: Zea mays
B9: V370A: bx9 SEQ ID NO:1 mutant (protein)
chain: B1 chain with L281A, V370A
modifications: Zea mays
B10: I363F: bx9 SEQ ID NO:1 mutant (protein)
chain: B1 chain with L281A, I363F
modifications: Zea mays
B11: V116I: bx9 SEQ ID NO:1 mutant (protein)
chain: B1 chain with V116I, L281A
modifications: Zea mays
B12: Q22H: bx9 SEQ ID NO:1 mutant (protein)
chain: B1 chain with Q22H, L281A
modifications: Zea mays
B13: F21Y: bx9 SEQ ID NO:1 mutant (protein)
chain: B1 chain with F21Y, L281A
modifications: Zea mays
B14: A79Q: bx9 SEQ ID NO:1 mutant (protein)
chain: B1 chain with A79Q, L281A
modifications: Zea mays
B15: V370L: bx9 SEQ ID NO:1 mutant (protein)
chain: B1 chain with L281A, V370L
modifications: Zea mays
B16: V370M: bx9 SEQ ID NO:1 mutant (protein)
chain: B1 chain with L281A, V370M
modifications: Zea mays
B17: M135C: bx9 SEQ ID NO:1 mutant (protein)
chain: B1 chain with M135C, L281A
modifications: Zea mays
B18: A79S: bx9 SEQ ID NO:1 mutant (protein)
chain: B1 chain with A79S, L281A
modifications: Zea mays
B19: I363T: bx9 SEQ ID NO:1 mutant (protein)
chain: B1 chain with L281A, I363T
modifications: Zea mays
B20: I363A: bx9 SEQ ID NO:1 mutant (protein)
chain: B1 chain with L281A, I363A
modifications: Zea mays
B21: M135L: bx9 SEQ ID NO:1 mutant (protein)
chain: B1 chain with M135L, L281A
modifications: Zea mays
B22: A79G: bx9 SEQ ID NO:1 mutant (protein)
chain: B1 chain with A79G, L281A
modifications: Zea mays
B23: I363V: bx9 SEQ ID NO:1 mutant (protein)
chain: B1 chain with L281A, I363V
modifications: Zea mays
B24: Q22M: bx9 SEQ ID NO:1 mutant (protein)
chain: B1 chain with Q22M, L281A
modifications: Zea mays
B25: A79E: bx9 SEQ ID NO:1 mutant (protein)
chain: B1 chain with A79E, L281A
modifications: Zea mays
B26: V116L: bx9 SEQ ID NO:1 mutant (protein)
chain: B1 chain with V116L, L281A
modifications: Zea mays
B27: V370I: bx9 SEQ ID NO:1 mutant (protein)
chain: B1 chain with L281A, V370I
modifications: Zea mays
B28: A334K: bx9 SEQ ID NO:1 mutant (protein)
chain: B1 chain with L281A, A334K
modifications: Zea mays
B29: I363W: bx9 SEQ ID NO:1 mutant (protein)
chain: B1 chain with L281A, I363W
modifications: Zea mays
B30: C372I: bx9 SEQ ID NO:1 mutant (protein)
chain: B1 chain with L281A, C372I
modifications: Zea mays
B31: G376C: bx9 SEQ ID NO:1 mutant (protein)
chain: B1 chain with L281A, G376C
modifications: Zea mays
B32: Q22P: bx9 SEQ ID NO:1 mutant (protein)
chain: B1 chain with Q22P, L281A
modifications: Zea mays

Test: UDP luminescence plate assay of E. coli extracts, saturation mutants of SEQ ID NO: 1, herbicide V
Format: biochemical, Zea mays
Conditions: improvement factor relative to w/t bx9 = 1.0, rounded to nearest 0.5; extract activity basis; compound V
Description: Competent BL21 (DE3) cells are transformed as in the foregoing examples and, following seed culturing, grown and autoinduced in plates in a 0.5-1 ml volume of autoinduction medium containing 50 ug/ml kanamycin. Plates are incubated at 37° C. and shaken at 900 rpm. Growth is monitored by taking 20 ul aliquots, diluting 10 fold into flat-bottomed 96 well microtiter plates and reading OD600n at t=0, 1, 2, 2½ and 3 hours if necessary. At a (corrected) OD600 nm˜0.2, plates are transferred to 20° C. and shaken overnight at 900 rpm in a Jencons VWR plate incubator. After ˜18-20 h the final OD600 readings are recorded and the plates centrifuged at 4600 rpm (bench top centrifuge) for 10 min at 4° C. The supernatant is discarded and the pellets then washed with 0.25 ml PBS by repeat centrifugation and removal of supernatant before freezing cell pellets at −80° C. To prepare extracts, plates are allowed to thaw for 30 min and then pellets are resuspended in 0.25 ml of a suitable lysis buffer (for example—50 mM Tris HCL buffer at pH 8.0, 5% glycerol containing 50 mM NaCl and lysonase) mixed, incubated at room temperature for a sufficient time for lysis to be near complete and then centrifuged to remove cell debris and 100 ul of supernatant extract removed to a 96 well V-shaped well plate and stored on ice prior to assay.
Optionally plate assays are stopped with brief heating to 95 C before returning to ice and addition of UDP-Glo detection reagent followed by incubation at lab temperature. […] In addition a UDP standard curve is run alongside each set of plate tests.
Making use of the ELISA assay it is then possible to calculate a specific activity (e.g. in Relative Luminescence Units (RLU)/min/ug bx protein) based upon the amount of each mutant bx9 polypeptide expressed in each well. […] The specific activity of the various test mutant extracts on the same plate are then expressed as a fraction of the specific activity of the w/t bx9 and thus the ‘improvement factor’ versus the w/t expressed as a decimal where, for example, ‘0.5’ means half the specific activity of the wild type and 2.0 means twice the specific activity of the wild type. However, as will be readily apparent to the skilled man, particularly in cases where the UDP assay signal was low (with poor signal to noise versus the background) and/or the ELISA measurement of bx protein also low such a method is prone to generate spurious high specific activity numbers and uncertain numbers.

| Molecule | Preferred amino acid substitutions and (IF) based on RLU/min/ul | Most Preferred amino acid substitutions and (IF) based on RLU/min/ul |
| --- | --- | --- |
| B1 | L(1.5) | – |
| B2 | M(1.0) | – |
| B3 | T,C,L(1.0) | – |
| B4 | S,T,F,W(1.5) | – |
| B5 | 1.0 | – |
| B6 | T,C,L,M(1.0) | – |
| B7 | T,C,L,M(1.0) | – |
| B8 | C(1.0) | – |
| B9 | A,I(1.5) | – |
| B10 | S,T,F,W(1.5) | – |
| B11 | L,I(1.0) | – |
| B12 | H,P,M(1.0) | – |
| B13 | – | Y(2.0) |
| B14 | 1.0 | – |
| B15 | T,C,L,M(1.0) | – |
| B16 | T,C,L,M(1.0) | – |

| Molecule | Preferred amino acid substitutions and (IF) based on RLU/min/ul | Most Preferred amino acid substitutions and (IF) based on RLU/min/ul |
| --- | --- | --- |
| B17 | T,C,L(1.0) | – |
| B18 | 1.0 | – |
| B19 | S,T,F,W(1.5) | – |
| B20 | – | A,V(2.0) |
| B21 | T,C,L(1.0) | – |
| B22 | 1.5 | – |
| B23 | – | A,V(2.0) |
| B24 | H,P,M(1.0) | – |
| B25 | 1.5 | – |
| B26 | L,I(1.0) | – |
| B27 | A,I(1.5) | – |
| B28 | – | K,R(2.0) |
| B29 | S,T,F,W(1.5) | – |
| B30 | I(1.0) | – |
| B31 | C,M(1.0) | – |
| B32 | H,P,M(1.0) | – |
